Reference: the supplement of paper PMC7125110
± gives the standard error. Fewer inactive variants are shown than the library holds.

B1: glmS ribozyme (parent)
chain: AUAAAAGCGCCAGAACUACAGAAAUGUAGUUGACGAGGAGGAGGUUUAUCGAAUUUUCGGCGGAUGCCUCCAAA

Assays:
Conditions in all cases: with glucosamine-6-phosphate
glucosamine-6-phosphate [1] = variants of: B1; assay: self-cleavage kobs at 160 uM GlcN6P; higher = faster cleavage; RNA array
Summary of the method: (§1)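 E. coli RNA polymerase transcribed barcoded ribozyme variants in situ on sequenced MiSeq chips, which were tracked via a hybridised Cy3 probe at 37 °C. Tiles were imaged over ~14 h after glucosamine-6-phosphate (40 μM to 10 mM) in HEPES/KCl/Mg(OAc)2 buffer was flowed in. Normalised per-tile medians were fit to one- or two-exponential decays for kobs, and kcat and KM came from weighted Michaelis–Menten fits.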

glucosamine-6-phosphate [2] = variants of: B1; assay: self-cleavage kobs at 640 uM GlcN6P; higher = faster cleavage; RNA array
Summary of the method: as §1

glucosamine-6-phosphate [3] = variants of: B1; assay: self-cleavage kobs at 2500 uM GlcN6P; higher = faster cleavage; RNA array
Summary of the method: as §1

glucosamine-6-phosphate [4] = variants of: B1; assay: self-cleavage kobs at 40 uM GlcN6P; higher = faster cleavage; RNA array
Summary of the method: as §1

glucosamine-6-phosphate [5] = variants of: B1; assay: self-cleavage kobs at 10000 uM GlcN6P; higher = faster cleavage; RNA array
Summary of the method: as §1

Variant | self-cleavage kobs at 160 uM GlcN6P (glucosamine-6-phosphate [1]) [s⁻¹] | self-cleavage kobs at 640 uM GlcN6P (glucosamine-6-phosphate [2]) [s⁻¹] | self-cleavage kobs at 2500 uM GlcN6P (glucosamine-6-phosphate [3]) [s⁻¹] | self-cleavage kobs at 40 uM GlcN6P (glucosamine-6-phosphate [4]) [s⁻¹] | self-cleavage kobs at 10000 uM GlcN6P (glucosamine-6-phosphate [5]) [s⁻¹]
A36C U47G U69G | 0.000151 ± 3.4e-05 | 8.37e-05 ± 1.5e-05 | 0.000213 ± 6e-05 |  | 
C8U A39C C50G C61G | < 1e-05 | < 1e-05 | < 1e-05 |  | 
A12G G32C G37U C71G |  |  |  | < 1e-05 | 
U45C C50U | < 1e-05 | < 1e-05 |  | < 1e-05 | 
C11U A42U G43U A53G C68G | 0.0001 ± 3.7e-05 | 0.000213 ± 6.4e-05 | 0.0001 ± 3.5e-05 |  | 
A15C A36U A39G | < 1e-05 | < 1e-05 | < 1e-05 |  | < 1e-05
A12U U69G C70A | 7.03e-05 ± 2.1e-05 | 8.9e-05 ± 2.3e-05 | 3.11e-05 ± 1.5e-05 |  | 
G9C G43A |  |  |  | < 1e-05 | < 1e-05
G60U U65A | < 1e-05 | < 1e-05 | < 1e-05 | < 1e-05 | < 1e-05
C8U U46A | < 1e-05 |  | < 1e-05 |  | < 1e-05
G7C C50U G51U C70A | < 1e-05 |  | < 1e-05 |  | 
C10G G37C A48U C61A U69C | < 1e-05 |  | < 1e-05 |  | 
A6U A15C U55A G66U | < 1e-05 | < 1e-05 | < 1e-05 |  | 
C10U G44U U45A G59C C67G |  |  |  | < 1e-05 | < 1e-05
C11U A39G G43U C58G C70A | < 1e-05 |  | < 1e-05 |  | 
U30C C50A U65A U69G |  | 0.000207 ± 5.3e-05 | 5.84e-05 ± 2.3e-05 | 4.39e-05 ± 1.7e-05 | 3.19e-05 ± 1.6e-05
A6U A42U C61G | < 1e-05 |  |  |  | 
A14U U30C G43A | < 1e-05 | < 1e-05 | < 1e-05 |  | 
C8U G32U G62U C71U | < 1e-05 |  | < 1e-05 |  | 
A12U G37C A53C U54A |  |  |  | < 1e-05 | 
C10U A42G A53U | < 1e-05 |  |  |  | 
C11G A48U G63C |  |  |  | < 1e-05 | < 1e-05
C16G G43C |  | < 1e-05 |  | < 1e-05 | < 1e-05
G7U G9A C16U G29A A53U G59A G66A U69G | < 1e-05 | < 1e-05 |  |  | 
C10U G51C | < 1e-05 |  |  |  | 

Variant | self-cleavage kobs at 160 uM GlcN6P (glucosamine-6-phosphate [1]) [s⁻¹] | self-cleavage kobs at 640 uM GlcN6P (glucosamine-6-phosphate [2]) [s⁻¹] | self-cleavage kobs at 2500 uM GlcN6P (glucosamine-6-phosphate [3]) [s⁻¹] | self-cleavage kobs at 40 uM GlcN6P (glucosamine-6-phosphate [4]) [s⁻¹] | self-cleavage kobs at 10000 uM GlcN6P (glucosamine-6-phosphate [5]) [s⁻¹]
G9A U30C A42C C70U | < 1e-05 | < 1e-05 |  |  | 
G66A U69G | 8.36e-05 ± 2.3e-05 | 0.000427 ± 0.0001 | 0.00012 ± 2.1e-05 |  | 4.74e-05 ± 1.7e-05
C10A G51C |  | < 1e-05 |  | < 1e-05 | < 1e-05
G29U A39G U56A | 8.2e-05 ± 2.8e-05 | 0.001 ± 0.00039 | 0.00181 ± 0.00055 |  | 
G37U G51C A52U G63U | < 1e-05 |  |  |  | 
C8G G32U C58U | < 1e-05 | < 1e-05 |  |  | 
A33G U45A C50G U54G G60A C67A |  |  |  | 0.000354 ± 9.5e-05 | 0.000164 ± 5.5e-05
A6C G37A G41A A42U |  |  |  | < 1e-05 | < 1e-05
C11A U30C G62A | < 1e-05 | < 1e-05 | < 1e-05 |  | 
C16A G38C C68U | < 1e-05 | < 1e-05 |  |  | 
G13U G35A U45A A64G |  | < 1e-05 | < 1e-05 | < 1e-05 | < 1e-05
C10A C34G A42G C70G |  |  |  | < 1e-05 | < 1e-05
U30A U49C | < 1e-05 | < 1e-05 | < 1e-05 | < 1e-05 | < 1e-05
G32A G35C C67G |  |  |  | < 1e-05 | < 1e-05
A6U U65G C70U | < 1e-05 | < 1e-05 |  |  | 
G9A G44C C68A | < 1e-05 | < 1e-05 | < 1e-05 |  | 
G9C G41A | < 1e-05 |  | < 1e-05 |  | < 1e-05
G32C A39C | < 1e-05 |  |  | < 1e-05 | 
G59C G63A | < 1e-05 | < 1e-05 |  |  | < 1e-05
C34G C58U A64C C67G | 4.06e-05 ± 2e-05 | 7.23e-05 ± 2.6e-05 |  |  | 
A42C C50U | < 1e-05 | < 1e-05 | < 1e-05 |  | < 1e-05
A33G A53C C71U | < 1e-05 |  |  |  | 
A6G A48U G66U U69C |  |  |  | < 1e-05 | < 1e-05
G13U A14U C58A C67U | 5.09e-05 ± 1.8e-05 | 0.000194 ± 4.3e-05 | 0.000334 ± 7.5e-05 |  | 
G43U U47G U65C | < 1e-05 |  | < 1e-05 |  | 
